Test results taken from article PMC6336717.

How the values were obtained:
C3b (human) [1] = target: C3b (human) (UniProt P01024); experiment: ELISA; competition: C3b coated on the plate; FH 25 nM and WT Sbi-III-IV 1,000 nM with a concentration series of FHRs, FH19-20 or FHR-1 1-2; 1 h 37°C, PBST-2% BSA; FH bound detected with OX-24
C3b (human) [2] = target: C3b (human) (UniProt P01024); experiment: ELISA; competition: C3b coated on the plate (0.25 ug/well); FH 25 nM with a concentration series of FHRs, FH19-20 or FHR-1 1-2, no Sbi; 1 h 37°C, PBST-2% BSA; FH bound detected with OX-24

Sequence of factor H-related protein 1 (FHR-1), recombinant (Q03591 19-330): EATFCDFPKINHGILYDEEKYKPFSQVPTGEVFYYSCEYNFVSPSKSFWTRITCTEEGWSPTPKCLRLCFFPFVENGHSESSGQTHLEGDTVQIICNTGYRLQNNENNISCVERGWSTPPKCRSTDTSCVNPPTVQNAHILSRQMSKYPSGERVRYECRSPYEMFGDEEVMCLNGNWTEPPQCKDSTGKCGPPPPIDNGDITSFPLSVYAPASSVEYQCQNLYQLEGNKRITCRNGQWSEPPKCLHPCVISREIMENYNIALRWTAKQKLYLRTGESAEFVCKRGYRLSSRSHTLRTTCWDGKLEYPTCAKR

- percent residual FH bound to C3b at the highest FHR-1 concentration, with Sbi-III-IV WT (C3b (human) [1]): 0%
- percent residual FH bound to C3b at the lowest FHR-1 concentration, with Sbi-III-IV WT (C3b (human) [1]): 25%
- percent residual FH bound to C3b at the highest FHR-1 concentration (C3b (human) [2]): 30%
- percent residual FH bound to C3b at the lowest FHR-1 concentration (C3b (human) [2]): 70%
Substance: factor H-related protein 1 (FHR-1), recombinant (from UniProt Q03591 19-330) (natural protein)
